Km and kcat data for two proteins are collected here from PMC3560613.

One may read the Km as the substrate concentration at which the rate is half of its maximum. As a reminder, the kcat is the number of substrate molecules converted per active site and unit of time at saturation.

Substrate in the series: Nc1ccn([C@@H]2O[C@H](COP(=O)(O)OP(=O)(O)OP(=O)(O)O)[C@@H](O)[C@H]2O)c(=O)n1
Briefly: purified protein. The settings on record: 20 mM glycerol phosphate, 6 mM MgCl2, 20 mM Tris-HCl pH 8, 37°C.

B1: LmGCT (Listeria monocytogenes glycerol 3-phosphate cytidylyltransferase) (Listeria monocytogenes EGD-e) (protein)
chain: MKKVITYGTFDLLHWGHIHLLKRAKALGDYLIVAISSDEFNRIKHKEAYHSYEHRKLIIEAIRYVDEVIPENNWEQKRDDIEKYGIDVFVMGDDWEGEFDFLKDVCEVVYLPRTEGISTSQIKDELK
On to B1, for which the Michaelis constant (Km) is 1520 µM and the kcat was 4.15 s⁻¹.

B2: EfGCT (Enterococcus faecalis glycerol 3-phosphate cytidylyltransferase) (Enterococcus faecalis V583) (protein)
chain: MKKILTYGTFDLLHYGHINLLKKAKQQGDYLIVGLSTDAFNLEKKKQSYFSYEKRKQLLEAIRYVDLVIPETSWKQKVSDIAEFKIDTLVMGDDWQGAFDFLEVETTAKVLYLPRTPEVSTTQIKKELYYSE
For B2, the Km came out at 2420 µM and the kcat amounted to 1.51 s⁻¹.
